From patent US20120094923A1 (published 2012) come the findings set out here.

Substitutions are numbered along the chain they refer to. Names may count otherwise.

Test [1] addresses T1, BPTI-K15R/R17D (bovine, UniProt P00974 36-93). Put plainly: co-crystal structure, PDB 3P95. The procedure: The heterodimeric complexes were further purified by HiLoad Superdex 75 gel filtration chromatography (GE Healthcare), exchanged into 10 mM Na acetate, pH 6.5, and concentrated to ˜3 mg/mL. […] Drops (4 μL) were prepared by mixing equal volumes of protein and reservoir solutions.

In test [2] the target is T2, BPTI-K15R/R17G (bovine, UniProt P00974 36-93). Put plainly: co-crystal structure, PDB 3P92.
Another test has as its target BPTI-R17M (bovine, UniProt P00974 36-93). Put plainly: 1/Ki from competitive inhibition.
The target of test [3] is bovine pancreatic trypsin inhibitor, wild type (bovine, UniProt P00974 36-93). Put plainly: 1/Ki from competitive inhibition.
In test [4] the target is T2, BPTI-K15R/R17G. Put plainly: 1/Ki from competitive inhibition.
A further test deals with BPTI-K15R (bovine, UniProt P00974 36-93). Put plainly: 1/Ki from competitive inhibition.
The target in test [5] is T1, BPTI-K15R/R17D. Put plainly: 1/Ki from competitive inhibition.
The target in a further test is BPTI-K15R/R17M (bovine, UniProt P00974 36-93). Put plainly: 1/Ki from competitive inhibition.
Test [6] deals with T2, BPTI-K15R/R17G. Put plainly: slow tight-binding inhibition kinetics.
Experimental: Reactions were run at 25° C., and were followed spectroscopically for 16 hours so that reliable steady-state rates could be obtained.

B1: catalytically inactive mesotrypsin-S195A (enzyme)
chain: IVGGYTCEENSLPYQVSLNSGSHFCGGSLISEQWVVSAAHCYKTRIQVRLGEHNIKVLEGNEQFINAAKIIRHPKYNRDTLDNDIMLIKLSSPAVINARVSTISLPTAPPAAGTECLISGWGNTLSFGADYPDELKCLDAPVLTQAECKASYPGKITNSMFCVGFLEGGKDSCQRDAGGPVVCNGQLQGVVSWGHGCAWKNRPGVYTKVYNYVDWIKDTIAANS
notes: Used for the co-crystal structures; also called S195A mutant
For B1, the binding result in the test with BPTI-K15R/R17D [1] and in the test with BPTI-K15R/R17G [2] was “binds” each time.

B2: recombinant human mesotrypsin (enzyme)
chain: B1 chain with A177S
notes: also called PRSS3
Turning to B2, the Ka with BPTI-R17M came to 1.32e+06 M⁻¹; in test [3], 74100 M⁻¹; in the test with BPTI-K15R/R17G [4] it was 9.3e+07 M⁻¹; with BPTI-K15R, 417000 M⁻¹; with BPTI-K15R/R17D [5], 667000 M⁻¹; in the test with BPTI-K15R/R17M, 4.76e+06 M⁻¹.

B3: recombinant human anionic trypsin (enzyme, UniProt P07478 24-247, looked up)
chain: IVGGYICEENSVPYQVSLNSGYHFCGGSLISEQWVVSAGHCYKSRIQVRLGEHNIEVLEGNEQFINAAKIIRHPKYNSRTLDNDILLIKLSSPAVINSRVSAISLPTAPPAAGTESLISGWGNTLSSGADYPDELQCLDAPVLSQAECEASYPGKITNNMFCVGFLEGGKDSCQGDSGGPVVSNGELQGIVSWGYGCAQKNRPGVYTKVYNYVDWIKDTIAANS
notes: mature
As for B3, the binding result with BPTI-K15R/R17G [6] was “binds”.
